Source: patent US20220025008A1 (FAPON BIOTECH, published 2022)
Residue numbers refer to the chain shown, from its start.

B1: WT 1-6 (antibody, V domains shown)
VH: QVRLQESGPSQVKPAQTLSLTCAISGPSITTYYVDWVRHTPGKPPEWLAQMTKDANAVHQPTIRSRLSITRDTSKSQVFLKLTGVTTEDTAVYYCVKGLIDWGPGLLVTVSS
V domain: QAVLTQPSSVSRSLGQTVSITCSGSSDQVGPGDYLNWFQLIPGSAPKTLIFAASSRLRGVPDRFSGSRSGNTATLTINSLQAEDEADYYCGSANSRGGYVWGSGTRLTVLS
B2: WT 1-7 (antibody, V domains shown)
VH: B1 VH with I29V, V34L, I63V, L99V
V domain: B1 V domain with Q28N, L35I, S54Y, A93G
B3: Mutation 1-5 (antibody)
heavy: QVRLQESGPSQVKPAQTLSLTCAISGFSLTTYYVDWVRHTPGKPPEWLAQMTKDGNAVHNPTVRSRLSITRDTSKSQVFLKLTGVTTEDTAVYYCVRGVIDFGPGLLVTVSSASTTPPKVYPLTSCCGDTSSSIVTLGCLVSSYMPEPVTVTWNSGALTSGVHTFPAILQSSGLYSLSSVVTVPASTSGAQTFICNVAHPASSTKVDKRVEPGCPDPCKHCRCPPPELPGGPSVFIFPPKPKDTLTISGTPEVTCVVVDVGQDDPEVQFSWFVDNVEVRTARTKPREEQFNSTFRVVSALPIQHQDWTGGKEFKCKVHNEGLPAPIVRTISRTKGQAREPQVYVLAPPQEELSKSTLSVTCLVTGFYPDYIAVEWQKNGQPESEDKYGTTTSQLDADGSYFLYSRLRVDKNSWQEGDTYACVVMHEALHNHYTQKSISKPPGK
light: QAVLTQPSSVSRSLGQTVSITCSGSSDNVGFGDYINWFQLIPGSAPKTLIFGAYSRVRGVPDRFSGSRSGNTATLTINSLQAEDEADYYCGSGNSRNYVFGSGTRLTVLSQPKSAPSVTLFPPSKEELDTNKATVVCLISDFYPGSVNVVWKADGSTINQNVKTTQASKQSNSKYAASSYLTLTGSEWKSKSSYTCEVTHEGSTVTKTVKPSECS
B4: Mutation 1-6 (antibody, V domains shown)
VH: B1 VH with P27F, I29V, V34I, A55G, Q60N, I63V, K97R, L99I
VL: QAVLTQPSSVSRSLGQTVSITCSGSSDNVGFGDYINWFQLIPGSAPKTLIFGASSRIRGVPDRFSGSRSGNTATLTINSLQAEDEADYYCGSPNSRNYVFGSGTRLTVLS
B5: Mutation 1-9 (antibody)
heavy: B3 heavy with L29I, V34I, N60Q, V63L, V99L
light: QAVLTQPSSVSRSLGQTVSITCSGSSDQVGFGDYINWFQLIPGSAPKTLIFGASSRIRGVPDRFSGSRSGNTATLTINSLQAEDEADYYCGSANSRGGYVFGSGTRLTVLSQPKSAPSVTLFPPSKEELDTNKATVVCLISDFYPGSVNVVWKADGSTINQNVKTTQASKQSNSKYAASSYLTLTGSEWKSKSSYTCEVTHEGSTVTKTVKPSECS
B6: Mutation 1-11 (antibody)
heavy: B3 heavy with L29I, N60Q, V63I
light: B5 light with I35V, I57V, A93P
B7: Mutation 1-17 (antibody)
heavy: B3 heavy with L29V
light: B3 light with Y54T
B8: Mutation 1-18 (antibody, V domains shown)
VH: B1 VH with P27F, V34I, A55G, Q60N, I63V, K97R, L99I
VL: B4 VL with S54T
B9: Mutation 1-19 (antibody)
heavy: B3 heavy with L29I, V34L, N60Q, V99I
light: B3 light with I35L, Y54T, V57L
B10: Mutation 1-23 (antibody)
heavy: B3 heavy with N60Q, V63I
light: B5 light with I35V, S54Y, I57V, A93P
B11: Mutation 1-29 (antibody)
heavy: B3 heavy with L29I
light: B3 light with Y54S
B12: Mutation 1-30 (antibody, V domains shown)
VH: B1 VH with P27F, I29L, V34I, A55G, Q60N, I63V, K97R, L99I
VL: B4 VL with S54T
B13: Mutation 1-35 (antibody)
heavy: B3 heavy with L29V, N60Q, V63I
light: B5 light with I35V, S54Y, I57V, A93P
B14: Mutation 1-40 (antibody, V domains shown)
VH: B1 VH with P27F, I29L, V34L, A55G, I63V, K97R, L99V
VL: B4 VL with I35L, S54Y, I57L
B15: Mutation 1-41 (antibody, V domains shown)
VH: B1 VH with P27F, I29V, V34I, A55G, Q60N, I63V, K97R, L99I
VL: B4 VL with S54Y, I57V, P93G

molecular target: T1, Recombinant NT antigen (N-terminal pro-brain natriuretic peptide, NT-proBNP) (human, UniProt P16860 27-102); test: indirect ELISA, KD calculated from half-max OD at 4 coating concentrations
T1 construct: domain: N-terminal pro-brain natriuretic peptide (NT-proBNP); also called recombinant NT protein; N-terminal pro-B-type natriuretic peptide
T1 sequence (looked up): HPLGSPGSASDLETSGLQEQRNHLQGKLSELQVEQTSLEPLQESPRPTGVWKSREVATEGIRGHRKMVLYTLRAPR
Method in brief: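 Plates coated overnight at 4 °C with recombinant NT antigen at 3, 1.5, 0.75 or 0.375 μg/ml, blocked with 20% BSA. Antibody, 2-fold dilutions from 1000 to 0.977 ng/ml, was incubated 30 min at 37 °C, then detected with HRP anti-IgG, OD450/630. KD was derived from half-max OD across coating levels.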

| Binder | Kd [nM] |
| --- | --- |
| B1 | 6.14 |
| B2 | 5.05 |
| B3 | 6.1 |
| B4 | 1.17 |
| B5 | 1.56 |
| B6 | 1.52 |
| B7 | 3.39 |
| B8 | 1.73 |
| B9 | 1.51 |
| B10 | 0.81 |
| B11 | 1.49 |
| B12 | 2.66 |
| B13 | 1.51 |
| B14 | 3.47 |
| B15 | 2.82 |
